Laboratory results: patent US20230055408A1 (JIANGSU HENGRUI MEDICINE, published 2023)

T1: human CEA protein on the cell surface (human, UniProt P06731 35-685)
T1 construct: whole, on cells; also called CEACAM-5; CD66e
T1 sequence (looked up): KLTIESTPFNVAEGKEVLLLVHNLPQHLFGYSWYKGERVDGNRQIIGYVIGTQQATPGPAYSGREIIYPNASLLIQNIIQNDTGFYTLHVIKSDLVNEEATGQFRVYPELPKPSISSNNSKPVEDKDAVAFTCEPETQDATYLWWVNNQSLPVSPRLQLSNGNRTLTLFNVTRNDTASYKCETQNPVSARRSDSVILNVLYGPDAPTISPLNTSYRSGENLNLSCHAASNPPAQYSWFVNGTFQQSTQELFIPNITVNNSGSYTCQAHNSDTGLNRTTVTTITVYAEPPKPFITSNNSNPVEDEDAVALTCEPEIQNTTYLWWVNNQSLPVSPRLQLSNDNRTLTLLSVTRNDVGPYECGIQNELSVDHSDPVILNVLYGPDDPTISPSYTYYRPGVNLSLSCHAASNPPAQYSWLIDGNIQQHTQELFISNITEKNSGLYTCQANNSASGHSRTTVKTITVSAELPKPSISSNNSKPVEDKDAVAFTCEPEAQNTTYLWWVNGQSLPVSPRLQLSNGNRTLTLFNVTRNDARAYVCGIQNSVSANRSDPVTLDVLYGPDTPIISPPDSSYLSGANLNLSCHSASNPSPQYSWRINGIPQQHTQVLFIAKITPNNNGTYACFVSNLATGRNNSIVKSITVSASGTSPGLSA

T2: monkey CEA expressed on CHO cell surface (cynomolgus monkey)
T2 construct: also called cynoCEA-CHO; monkey CEA proteins on the cell surface
T2 chain: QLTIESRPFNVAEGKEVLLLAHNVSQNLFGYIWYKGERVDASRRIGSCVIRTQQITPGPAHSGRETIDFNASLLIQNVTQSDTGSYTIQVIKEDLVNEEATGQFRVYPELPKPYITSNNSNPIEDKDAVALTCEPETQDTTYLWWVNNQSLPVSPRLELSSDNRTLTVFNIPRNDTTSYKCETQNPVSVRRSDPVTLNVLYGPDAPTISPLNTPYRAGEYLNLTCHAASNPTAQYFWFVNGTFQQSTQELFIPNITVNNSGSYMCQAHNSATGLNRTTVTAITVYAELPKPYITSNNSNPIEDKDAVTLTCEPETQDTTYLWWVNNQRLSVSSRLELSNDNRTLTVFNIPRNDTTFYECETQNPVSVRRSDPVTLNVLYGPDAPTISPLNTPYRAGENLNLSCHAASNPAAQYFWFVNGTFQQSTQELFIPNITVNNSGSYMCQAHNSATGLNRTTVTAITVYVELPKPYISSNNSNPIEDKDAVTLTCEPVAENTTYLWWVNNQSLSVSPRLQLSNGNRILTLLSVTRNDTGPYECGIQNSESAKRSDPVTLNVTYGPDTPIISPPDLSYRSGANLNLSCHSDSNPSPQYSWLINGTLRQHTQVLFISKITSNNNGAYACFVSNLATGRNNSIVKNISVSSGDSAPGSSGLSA


Columns and labels:
[1] = target: T1, human CEA protein on the cell surface; assay: FACS, MKN45 cells
Experimental: (§1) In order to detect the binding of the antibody to the CEA protein on the cell surface, the binding activity of the antibody was determined by FACS using cells expressing CEA on the cell surface. Cells were harvested and centrifuged at 400 g at 4° C. for 5 min. Pre-cooled PBS containing FBS at final concentration 10% was added, and the mixture was centrifuged at 400 g at 4° C. for 5 min; the procedures were repeated twice. The cells were seeded into a 96-well plate at 10⁵ cells/well, and 100 μL of gradient diluted antibody solution was added to each well. The plate was incubated at 4° C. for 60 min and centrifuged, and the supernatant was removed. 250 μL of pre-cooled PBS containing FBS at final concentration 10% was added to each well to resuspend the cells, and the suspension was centrifuged at 400 g at 4° C. for 5 min, followed by the removal of the supernatant; the procedures were repeated twice. 50 μL of 1:200 diluted secondary antibody Alexa Fluor@488 goat anti-human IgG (H+L) (Lifetechologies, Cat #A11013) was added. […] 250 μL of pre-cooled PBS containing FBS at final concentration 10% was added to each cell to resuspend the cells, and the suspension was centrifuged at 400 g at 4° C. for 5 min; the procedures were repeated twice. 100 μL of pre-cooled PBS was added to each well to resuspend the cells. The plate was analyzed by a flow cytometer (BD, FACSverse) for fluorescence signal values.

[2] = target: T2, monkey CEA expressed on CHO cell surface; assay: FACS, cynoCEA-CHO cells
Experimental: as §1

Binder | EC50 [1] [nM] | EC50 [2] [nM]
Hu63-5 (antibody, human IgG1, kappa, V domains shown) VH: EVQLVQSGAEVKKPGASVKVSCKASGYTFTDFYMNWVRQAPGQGLEWMGDIFPKNGNTDYNRKFKDRVTLTVDKSTSTVYMELSSLRSEDTAVYYCARSGYGNYVFDYWGQGTLVTVSS VL: DVQMTQSPSSLSASVGDRVTITCRTSQDINIYLNWYQQKPGKAPKLLIYYRSGLLSGVPSRFSGSGSGTDYTLTISSLQPEDFATYYCQQGNTLPPTFGGGTKVEIKR | 3.7 | 2.14
Hu63-10 (antibody, human IgG1, kappa, V domains shown) VH: EVQLVQSGAEVKKPGASVKVSCKASGYTFTDFYMNWVRQAPGQGLEWIGDIFPKNGNTDYNRKFKDKATLTVDKSTSTVYMEFRSLRSEDTAVYYCARSGYGNYVFDYWGQGTLVTVSS VL: DIQMTQSPSSLSASVGDRVTITCRTSQDINIYLNWYQQKPGKAPKLLIYYRSGLLSGVPSRFSGSGSGTDFTLTISSLQPEDFATYYCQQGNTLPPTFGGGTKVEIKR | 4.95 | 1.88
Hu63-4 (antibody, human IgG1, kappa, V domains shown) VH: EVQLVQSGAEVKKPGASVKVSCKASGYTFTDFYMNWVRQAPGQGLEWMGDIFPKNGNTDYNRKFKDRVTLTVDKSTSTVYMELSSLRSEDTAVYYCARSGYGNYVFDYWGQGTLVTVSS VL: DIQMTQSPSSLSASVGDRVTITCRTSQDINIYLNWYQQKPGKAPKLLIYYRSGLLSGVPSRFSGSGSGTDFTLTISSLQPEDFATYYCQQGNTLPPTFGGGTKVEIKR | 5.18 | 1.95
Hu63-11 (antibody, human IgG1, kappa, V domains shown) VH: EVQLVQSGAEVKKPGASVKVSCKASGYTFTDFYMNWVRQAPGQGLEWIGDIFPKNGNTDYNRKFKDKATLTVDKSTSTVYMEFRSLRSEDTAVYYCARSGYGNYVFDYWGQGTLVTVSS VL: DVQMTQSPSSLSASVGDRVTITCRTSQDINIYLNWYQQKPGKAPKLLIYYRSGLLSGVPSRFSGSGSGTDYTLTISSLQPEDFATYYCQQGNTLPPTFGGGTKVEIKR | 4.35 | 2.29
Hu63-1 (antibody, human IgG1, kappa, V domains shown) VH: EVQLVQSGAEVKKPGASVKVSCKASGYTFTDFYMNWVRQAPGQGLEWMGDIFPKNGNTDYNRKFKDRVTMTRDTSTSTVYMELSSLRSEDTAVYYCARSGYGNYVFDYWGQGTLVTVSS VL: DIQMTQSPSSLSASVGDRVTITCRTSQDINIYLNWYQQKPGKAPKLLIYYRSGLLSGVPSRFSGSGSGTDFTLTISSLQPEDFATYYCQQGNTLPPTFGGGTKVEIKR | 4.23 | –
Hu63-9 (antibody, human IgG1, kappa, V domains shown) VH: EVQLVQSGAEVKKPGASVKVSCKASGYTFTDFYMNWVRQAPGQGLEWIGDIFPKNGNTDYNRKFKDRATLTVDKSTSTVYMEFSSLRSEDTAVYYCARSGYGNYVFDYWGQGTLVTVSS VL: DVQMTQSPSSLSASVGDRVTITCRTSQDINIYLNWYQQKPGGAVKLLIYYRSGLLSGVPSRFSGSGSGTDYTLTISSLQPEDFATYYCQQGNTLPPTFGGGTKVEIKR | 4.87 | 2.47
Hu103-11 (antibody, human IgG1, lambda) heavy: not shown light: ELVLTQSPSASASLGASVKLTCTLSSQHSTYTIEWYQQQPEKGPRYVMELKKDGSHSTGDGIPDRFSGSSSGAERYLTISSLQSEDEADYYCGVGNTIKEQFVYVFGGGTKLTVLGQPKANPTVTLFPPSSEELQANKATLVCLISDFYPGAVTVAWKADGSPVKAGVETTKPSKQSNNKYAASSYLSLTPEQWKSHRSYSCQVTHEGSTVEKTVAPTECS | 2.71 | 0.92

Next, values leading:

EC50 [1] [nM] | EC50 [2] [nM] | Binder
3.71 | 2.88 | Hu63-6 (antibody, human IgG1, kappa, V domains shown) VH: EVQLVQSGAEVKKPGASVKVSCKASGYTFTDFYMNWVRQAPGQGLEWMGDIFPKNGNTDYNRKFKDRVTLTVDKSTSTVYMELSSLRSEDTAVYYCARSGYGNYVFDYWGQGTLVTVSS VL: DVQMTQSPSSLSASVGDRVTITCRTSQDINIYLNWYQQKPGGAVKLLIYYRSGLLSGVPSRFSGSGSGTDYTLTISSLQPEDFATYYCQQGNTLPPTFGGGTKVEIKR
3.56 | 2.01 | Hu63-3 (antibody, human IgG1, kappa, V domains shown) VH: EVQLVQSGAEVKKPGASVKVSCKASGYTFTDFYMNWVRQAPGQGLEWMGDIFPKNGNTDYNRKFKDRVTMTRDTSTSTVYMELSSLRSEDTAVYYCARSGYGNYVFDYWGQGTLVTVSS VL: DVQMTQSPSSLSASVGDRVTITCRTSQDINIYLNWYQQKPGGAVKLLIYYRSGLLSGVPSRFSGSGSGTDYTLTISSLQPEDFATYYCQQGNTLPPTFGGGTKVEIKR
3.24 | 2.43 | Hu63-8 (antibody, human IgG1, kappa, V domains shown) VH: EVQLVQSGAEVKKPGASVKVSCKASGYTFTDFYMNWVRQAPGQGLEWIGDIFPKNGNTDYNRKFKDRATLTVDKSTSTVYMEFSSLRSEDTAVYYCARSGYGNYVFDYWGQGTLVTVSS VL: DVQMTQSPSSLSASVGDRVTITCRTSQDINIYLNWYQQKPGKAPKLLIYYRSGLLSGVPSRFSGSGSGTDYTLTISSLQPEDFATYYCQQGNTLPPTFGGGTKVEIKR
3.73 | – | Hu63-2 (antibody, human IgG1, kappa, V domains shown) VH: EVQLVQSGAEVKKPGASVKVSCKASGYTFTDFYMNWVRQAPGQGLEWMGDIFPKNGNTDYNRKFKDRVTMTRDTSTSTVYMELSSLRSEDTAVYYCARSGYGNYVFDYWGQGTLVTVSS VL: DVQMTQSPSSLSASVGDRVTITCRTSQDINIYLNWYQQKPGKAPKLLIYYRSGLLSGVPSRFSGSGSGTDYTLTISSLQPEDFATYYCQQGNTLPPTFGGGTKVEIKR
4.04 | 2.23 | Hu63-12 (antibody, human IgG1, kappa, V domains shown) VH: EVQLVQSGAEVKKPGASVKVSCKASGYTFTDFYMNWVRQAPGQGLEWIGDIFPKNGNTDYNRKFKDKATLTVDKSTSTVYMEFRSLRSEDTAVYYCARSGYGNYVFDYWGQGTLVTVSS VL: DVQMTQSPSSLSASVGDRVTITCRTSQDINIYLNWYQQKPGGAVKLLIYYRSGLLSGVPSRFSGSGSGTDYTLTISSLQPEDFATYYCQQGNTLPPTFGGGTKVEIKR
2.18 | 1.26 | Hu103-2 (antibody, human IgG1, lambda, V domains shown) VH: EVQLVQSGSELKKPGASVKVSCKASGYTFTTYGVIWVRQAPGQGLEWMGWINTYSGVPTYADDFKGRFVFSLDTSVSTAYLQISSLKAEDTAVYYCARKKTLTTVTPWFAYWGQGTLVTVSS VL: ELVLTQSPSASASLGASVKLTCTLSSQHSTYTIEWYQQQPEKGPRYLMELKKDGSHSTGDGIPDRFSGSSSGAERYLTISSLQSEDEADYYCGVGNTIKEQFVYVFGGGTKLTVLG
2.37 | 2.49 | Hu103-1 (antibody, human IgG1, lambda, V domains shown) VH: EVQLVQSGSELKKPGASVKVSCKASGYTFTTYGVIWVRQAPGQGLEWMGWINTYSGVPTYADDFKGRFVFSLDTSVSTAYLQISSLKAEDTAVYYCARKKTLTTVTPWFAYWGQGTLVTVSS VL: ELVLTQSPSASASLGASVKLTCTLSSQHSTYTIEWHQQQPEKGPRYLMELKKDGSHSTGDGIPDRFSGSSSGAERYLTISSLQSEDEADYYCGVGNTIKEQFVYVFGGGTKLTVLG
1.91 | 1.18 | Hu103-3 (antibody, human IgG1, lambda) heavy: not shown light: ELVLTQSPSASASLGASVKLTCTLSSQHSTYTIEWYQQQPEKGPRYVMELKKDGSHSTGDGIPDRFSGSSSGAERYLTISSLQSEDEADYYCGVGNTIKEQFVYVFGGGTKLTVLGQPKANPTVTLFPPSSEELQANKATLVCLISDFYPGAVTVAWKADGSPVKAGVETTKPSKQSNNKYAASSYLSLTPEQWKSHRSYSCQVTHEGSTVEKTVAPTECS
